Data from patent publication US20230406922A1.

Legend:
[1] = target: monkey CD19, full length, on HEK293T cells (monkey); experiment: FACS on HEK293T-monkey CD19 cells
[2] = target: human CD19, full length, on cells (human) (UniProt P15391); experiment: FACS on CHO-K1-human CD19-1C4 cells
[3] = target: human CD19, full length, on cells (human) (UniProt P15391); experiment: FACS on Raji cells (endogenous CD19)
[4] = target: human CD19, full length, on cells (human) (UniProt P15391); experiment: FACS on CHO-K1-human CD19-2C8 cells
[5] = target: human CD19, full length, on cells (human) (UniProt P15391); experiment: FACS on CHO-K1-human CD19-2G4 cells
[6] = target: human CD19, full length, on cells (human) (UniProt P15391); experiment: FACS on CHO-K1-human CD19-1C9 cells
[7] = target: human CD19-his protein (human) (UniProt P15391); experiment: ELISA, human CD19-his coated at 4 ug/mL
[8] = target: murine CD19 protein (murine) (UniProt P25918); experiment: ELISA, murine CD19 coated
[9] = target: human CD19, full length, on cells (human) (UniProt P15391); experiment: FACS on Raji cells
[10] = target: human CD19, full length, on cells (human) (UniProt P15391); experiment: FACS on CHO-K1-human CD19 cells
[11] = target: cynomolgus monkey CD19 on peripheral blood B cells (cynomolgus monkey (Macaca fascicularis)); experiment: FACS on cynomolgus monkey PBMC, gated on CD20-positive B cells

murine CD19 protein (murine), sequence (P25918 19-287 limits assumed): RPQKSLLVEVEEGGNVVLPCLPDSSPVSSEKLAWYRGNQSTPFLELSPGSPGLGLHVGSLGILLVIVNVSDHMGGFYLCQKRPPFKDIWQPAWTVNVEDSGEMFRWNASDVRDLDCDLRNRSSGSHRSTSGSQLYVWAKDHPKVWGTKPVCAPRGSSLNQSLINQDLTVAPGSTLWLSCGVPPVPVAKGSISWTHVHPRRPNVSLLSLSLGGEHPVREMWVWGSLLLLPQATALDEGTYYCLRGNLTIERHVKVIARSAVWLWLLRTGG

Q: For IgG subtype control (antibody), which mean fluorescence intensity of cells [1] is on record?
A: 62 MFI

Q: And the mean fluorescence intensity of cells [2]?
A: 50 MFI

Q: And the mean fluorescence intensity of cells [3]?
A: 78 MFI

Q: And the mean fluorescence intensity of cells [4]?
A: 50 MFI

Q: What about the mean fluorescence intensity of cells [5] of the same substance?
A: 50 MFI

Q: What about the mean fluorescence intensity of cells [6] of the same substance?
A: 50 MFI

Q: How did the maximum mean fluorescence intensity [1] turn out when “negative control antibody mIgG1 (anti-hel-mIgG1, antibody against hen egg lysozyme)” was run?
A: 165 MFI

Q: And the OD450 at 0.0001 nM [7]?
A: 0.11 OD450

Q: What about the OD450 at 0.001 nM [7] of the same substance?
A: 0.12 OD450

Q: What about the OD450 at 0.01 nM [7] of the same substance?
A: 0.11 OD450

Q: What about the OD450 at 0.10 nM [7] of the same substance?
A: 0.11 OD450

Q: And the OD450 at 1.00 nM [7]?
A: 0.11 OD450

Q: And the OD450 at 10.00 nM [7]?
A: 0.12 OD450

Q: What about the OD450 at 100.00 nM [7] of the same substance?
A: 0.15 OD450

Q: And the OD450 at 0.0001 nM [8]?
A: 0.07 OD450

Q: What about the OD450 at 0.001 nM [8] of the same substance?
A: 0.06 OD450

Q: What about the OD450 at 0.01 nM [8] of the same substance?
A: 0.06 OD450

Q: And the OD450 at 0.10 nM [8]?
A: 0.06 OD450

Q: What about the OD450 at 1.00 nM [8] of the same substance?
A: 0.06 OD450

Q: What about the OD450 at 10.00 nM [8] of the same substance?
A: 0.08 OD450

Q: What about the OD450 at 100.00 nM [8] of the same substance?
A: 0.11 OD450

Q: What about the maximum mean fluorescence intensity [9] of the same substance?
A: 382 MFI

Q: And the maximum mean fluorescence intensity [10]?
A: 102 MFI

Q: What about the proportion of positive cells to B cells (%) at 1 nM [11] of the same substance?
A: 3%

Q: And the proportion of positive cells to B cells (%) at 10 nM [11]?
A: 5%

Q: And the proportion of positive cells to B cells (%) at 100 nM [11]?
A: 11%
